# The supplement of paper PMC10567573
# B1: ANKRD9 (parent)
# chain: VGAAGSARQELLGDRPRWQRLLGE
# Variants of: B1
# Experiment: protein stability index of a GFP-peptide fusion (GPS, HEK-293T) (PSI 1-6); higher = more stable
# Conditions: c terminus: a fixed tail appended
# 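Note: lentivirally expressed fusions sorted by FACS into six bins by GFP to DsRed ratio, PSI derived from sequencing read proportions per bin multiplied by bin number.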
row,Variant,protein stability index
1,VGAAWSARQELLGDRPRWQRLLGE [G5W],2.9
2,VGAAPSARQELLGDRPRWQRLLGE [G5P],3.53
3,VGAANSARQELLGDRPRWQRLLGE [G5N],2.9
4,VGAAQSARQELLGDRPRWQRLLGE [G5Q],3.09
5,VGAAGSARQELLGMRPRWQRLLGE [D14M],2.76
6,VGAAGSARQELLGIRPRWQRLLGE [D14I],2.56
7,VGAAGSARQELLGLRPRWQRLLGE [D14L],2.36
8,VGAAGSARQELLGARPRWQRLLGE [D14A],2.83
9,VGAAGSARQELLGFRPRWQRLLGE [D14F],2.12
10,VGAAGSARQELLGNRPRWQRLLGE [D14N],2.6
11,VGAAGSARQELLGHRPRWQRLLGE [D14H],3.24
12,VGAAGSARQELLGCRPRWQRLLGE [D14C],1.39
13,VGAAGSARQELLGQRPRWQRLLGE [D14Q],2.35
14,VGAAGSARQELLGERPRWQRLLGE [D14E],3.27
15,VGAAGSARQELLGVRPRWQRLLGE [D14V],2.27
16,VGAAGSARQELLGTRPRWQRLLGE [D14T],2.94
17,VGAAGSARQELLGYRPRWQRLLGE [D14Y],2.86
18,VGAAGSARQELLGSRPRWQRLLGE [D14S],3.25
19,VGAAGSARQELLGPRPRWQRLLGE [D14P],3.13
20,VGAAGSARQELLGRRPRWQRLLGE [D14R],2.75
21,VGAAGSARQELLGGRPRWQRLLGE [D14G],3.18
22,VGAAGSARQELLGDKPRWQRLLGE [R15K],3.06
23,VGAAGSARQELLGDWPRWQRLLGE [R15W],3.1
24,VGAAGSARQELLGDQPRWQRLLGE [R15Q],3.96

row,Variant,protein stability index
1,VGAAGSARQELLGDCPRWQRLLGE [R15C],3.11
2,VGAAGSARQELLGDIPRWQRLLGE [R15I],2.73
3,VGAAGSARQELLGDLPRWQRLLGE [R15L],2.51
4,VGAAGSARQELLGDMPRWQRLLGE [R15M],3.05
5,VGAAGSARQELLGDFPRWQRLLGE [R15F],2.75
6,VGAAGSARQELLGDEPRWQRLLGE [R15E],3.27
7,VGAAGSARQELLGDSPRWQRLLGE [R15S],4.15
8,VGAAGSARQELLGDYPRWQRLLGE [R15Y],2.66
9,VGAAGSARQELLGDGPRWQRLLGE [R15G],3.75
10,VGAAGSARQELLGDHPRWQRLLGE [R15H],4.05
11,VGAAGSARQELLGDPPRWQRLLGE [R15P],3.11
12,VGAAGSARQELLGDDPRWQRLLGE [R15D],4.12
13,VGAAGSARQELLGDVPRWQRLLGE [R15V],3.41
14,VGAAGSARQELLGDTPRWQRLLGE [R15T],3.68
15,VGAAGSARQELLGDNPRWQRLLGE [R15N],3.6
16,VGAAGSANQELLGDRPRWQRLLGE [R8N],4.03
17,VGAAGSASQELLGDRPRWQRLLGE [R8S],3.47
18,VGAAGSAAQELLGDRPRWQRLLGE [R8A],2.96
19,VGAAGSATQELLGDRPRWQRLLGE [R8T],2.76
20,VGAAGSAIQELLGDRPRWQRLLGE [R8I],3.08
21,VGAAGSACQELLGDRPRWQRLLGE [R8C],3.02
22,VGAAGSAHQELLGDRPRWQRLLGE [R8H],3.39
23,VGAAGSAQQELLGDRPRWQRLLGE [R8Q],3.37
24,VGAAGSAEQELLGDRPRWQRLLGE [R8E],4.01

row,Variant,protein stability index
1,VGAAGSADQELLGDRPRWQRLLGE [R8D],3.53
2,VGAAGSALQELLGDRPRWQRLLGE [R8L],2.92
3,VGAAGSAYQELLGDRPRWQRLLGE [R8Y],2.96
4,VGAAGSAWQELLGDRPRWQRLLGE [R8W],2.35
5,VGAAGSAVQELLGDRPRWQRLLGE [R8V],3.32
6,VGAAGSAFQELLGDRPRWQRLLGE [R8F],2.5
7,VGAAGSAKQELLGDRPRWQRLLGE [R8K],3.15
8,VGAAGSAPQELLGDRPRWQRLLGE [R8P],2.94
9,VGAAGSAGQELLGDRPRWQRLLGE [R8G],3.68
10,VGAAGSARQENLGDRPRWQRLLGE [L11N],3.71
11,VGAAGSARQEGLGDRPRWQRLLGE [L11G],3.43
12,VGAAGSARQEMLGDRPRWQRLLGE [L11M],3.77
13,VGAAGSARQERLGDRPRWQRLLGE [L11R],2.48
14,VGAAGSARQEQLGDRPRWQRLLGE [L11Q],3.8
15,VGAAGSARQEVLGDRPRWQRLLGE [L11V],3.98
16,VGAAGSARQEHLGDRPRWQRLLGE [L11H],2.85
17,VGAAGSARQEYLGDRPRWQRLLGE [L11Y],3.5
18,VGAAGSARQEPLGDRPRWQRLLGE [L11P],3.86
19,VGAAGSARQECLGDRPRWQRLLGE [L11C],3.22
20,VGAAGSARQEELGDRPRWQRLLGE [L11E],4.13
21,VGAAGSARQESLGDRPRWQRLLGE [L11S],4.02
22,VGAAGSARQEFLGDRPRWQRLLGE [L11F],4.5
23,VGAAGSARQEWLGDRPRWQRLLGE [L11W],2.61
24,VGAAGSARQETLGDRPRWQRLLGE [L11T],3.6

row,Variant,protein stability index
1,VGAAGSARQEILGDRPRWQRLLGE [L11I],3.3
2,VGAAGSARQEKLGDRPRWQRLLGE [L11K],3.69
3,VGAAGSARQELLGDRCRWQRLLGE [P16C],3.24
4,VGAAGSARQELLGDRARWQRLLGE [P16A],3.68
5,VGAAGSARQLLLGDRPRWQRLLGE [E10L],2.13
6,VGAAGSARQTLLGDRPRWQRLLGE [E10T],2.39
7,VGAAGSARQWLLGDRPRWQRLLGE [E10W],1.76
8,VGAAGSARQNLLGDRPRWQRLLGE [E10N],3.22
9,VGAAGSARQVLLGDRPRWQRLLGE [E10V],3.25
10,VGAAGSARQQLLGDRPRWQRLLGE [E10Q],3
11,VGAAGSARQDLLGDRPRWQRLLGE [E10D],3.37
12,VGAAGSARQHLLGDRPRWQRLLGE [E10H],2.6
13,VGAAGSARQSLLGDRPRWQRLLGE [E10S],3.54
14,VGAAGSARQCLLGDRPRWQRLLGE [E10C],2.75
15,VGAAGSARQPLLGDRPRWQRLLGE [E10P],1.62
16,VGAAGSARQALLGDRPRWQRLLGE [E10A],2.85
17,VGAAGSARQGLLGDRPRWQRLLGE [E10G],2.55
18,VGAAGSARQFLLGDRPRWQRLLGE [E10F],3.33
19,VGAAGSARQMLLGDRPRWQRLLGE [E10M],2.63
20,VGAAGSARQRLLGDRPRWQRLLGE [E10R],2.71
21,VGAAGSARQYLLGDRPRWQRLLGE [E10Y],3.03
22,VGAAGSARQILLGDRPRWQRLLGE [E10I],2.4
